Laboratory results published in patent US20210206881A1 (Amgen, published 2021).

T1: human B7RP1-Fc fusion protein (human, UniProt O75144 19-256, limits assumed)
T1 sequence (looked up): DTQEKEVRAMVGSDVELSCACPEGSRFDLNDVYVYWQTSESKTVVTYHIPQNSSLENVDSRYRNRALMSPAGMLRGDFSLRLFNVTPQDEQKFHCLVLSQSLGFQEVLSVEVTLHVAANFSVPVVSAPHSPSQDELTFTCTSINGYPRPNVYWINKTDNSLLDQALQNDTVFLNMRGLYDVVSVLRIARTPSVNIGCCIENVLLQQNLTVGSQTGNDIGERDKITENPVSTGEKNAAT

T2: human B7-related protein 1 (B7RP1) (human, UniProt O75144 19-256, limits assumed)
T2 construct: also called human B7RP1; ICOSLG
T2 sequence (looked up): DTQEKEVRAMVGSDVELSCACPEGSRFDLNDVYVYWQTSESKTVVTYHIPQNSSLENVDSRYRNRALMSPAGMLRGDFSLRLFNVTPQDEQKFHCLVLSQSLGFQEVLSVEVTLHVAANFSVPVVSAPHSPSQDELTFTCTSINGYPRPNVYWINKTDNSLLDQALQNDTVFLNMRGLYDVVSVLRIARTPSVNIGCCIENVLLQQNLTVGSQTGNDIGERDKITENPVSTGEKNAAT

T3: cynomolgus monkey B7RP1 (cynomolgus monkey, UniProt A0A2K5TK64 19-256)
T3 sequence: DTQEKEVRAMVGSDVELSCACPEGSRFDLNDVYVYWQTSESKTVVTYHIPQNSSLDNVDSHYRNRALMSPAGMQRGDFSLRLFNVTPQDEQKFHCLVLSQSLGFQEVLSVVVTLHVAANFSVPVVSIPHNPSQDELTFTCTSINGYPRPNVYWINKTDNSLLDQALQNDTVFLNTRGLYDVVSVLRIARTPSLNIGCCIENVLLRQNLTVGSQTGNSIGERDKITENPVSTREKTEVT


Tests used:
[1] = target: T4, human B-cell activating factor (BAFF) (human, UniProt Q9Y275 134-285); test: cell-based or functional assay
[2] = target: BAFF used in the cynomolgus monkey B cell proliferation assay; test: cell-based or functional assay
[3] = target: T1, human B7RP1-Fc fusion protein; test: cell-based or functional assay
[4] = target: B7RP1 used in the cynomolgus monkey T cell proliferation assay; test: cell-based or functional assay
[5] = target: T4, human B-cell activating factor (BAFF); test: KinExA (Kinetic Exclusion Assay)
Description: (§1) The binding affinities of the heterodimeric bispecific antibodies P74293 and P74294 to BAFF and B7RP1 were measured by Kinetic Exclusion Assay (KinExA®; Sapidyne Instruments, Boise, Id.). […] In addition, both of these bispecifics have similar binding affinities to cynomolgus monkey BAFF compared to human BAFF and to cynomolgus monkey B7RP1 compared to human B7RP1.

[6] = target: cynomolgus monkey BAFF (cynomolgus monkey, UniProt A0A2K5V2X4 134-285); test: KinExA (Kinetic Exclusion Assay)
Description: as §1

[7] = target: T2, human B7-related protein 1 (B7RP1); test: KinExA (Kinetic Exclusion Assay)
Description: as §1

[8] = target: T3, cynomolgus monkey B7RP1; test: KinExA (Kinetic Exclusion Assay)
Description: as §1

| IC50 (nM) for inhibition of BAFF-mediated human B cell proliferation [1] | IC50 (nM) for inhibition of BAFF-mediated cynomolgus monkey B cell proliferation [2] | IC50 (nM) for inhibition of B7RP1-mediated human T cell proliferation [3] | IC50 (nM) for inhibition of B7RP1-mediated cynomolgus monkey T cell proliferation [4] | Kd [5] | Kd [6] | Kd [7] | Kd [8] | Binder |
| --- | --- | --- | --- | --- | --- | --- | --- | --- |
| 0.86 nM | 1.6 nM | 1.36 nM | 0.29 nM | 0.029 nM | 0.0223 nM | 0.038 nM | 0.0494 nM | P74293 BAFF/B7RP1 bispecific molecule (bispecific antibody, human IgG2, kappa, also called anti-BAFF/B7RP1 bispecific P74293) heavy: EVQLVESGGGLVQPGGSLRLSCAASGFTFSSYWMSWVRQAPGKGLEWVAYIKQDGNEKYYVDSVKGRFTISRDNAKNSLYLQMNSLRAEDTAVYYCAREGILWFGDLPTFWGQGTLVTVSSASTKGPSVFPLAPCSRSTSESTAALGCLVKDYFPEPVTVSWNSGALTSGVHTFPAVLQSSGLYSLSSVVTVPSSNFGTQTYTCNVDHKPSNTKVDKTVERKCCVECPPCPAPPVAGPSVFLFPPKPKDTLMISRTPEVTCVVVDVSHEDPEVQFNWYVDGVEVHNAKTKPREEQFNSTFRVVSVLTVVHQDWLNGKEYKCKVSNKGLPAPIEKTISKTKGQPREPQVYTLPPSREEMTKNQVSLTCLVKGFYPSDIAVEWESNGQPENNYKTTPPMLDSDGSFFLYSKLTVDKSRWQQGNVFSCSVMHEALHNHYTQKSLSLSPGKGGGGGLPGCKWDLLIKQWVCDPLGSGSATGGSGSVASSGSGSATHLLPGCKWDLLIKQWVCDPL light: not shown |
| 0.96 nM | 1.8 nM | 0.98 nM | – | 0.037 nM | 0.0174 nM | 0.041 nM | 0.0452 nM | P74294 BAFF/B7RP1 bispecific molecule (bispecific antibody, human IgG2, kappa, variant of P71619 with a modified linker) heavy: EVQLVESGGGLVQPGGSLRLSCAASGFTFSSYWMSWVRQAPGKGLEWVAYIKQDGNEKYYVDSVKGRFTISRDNAKNSLYLQMNSLRAEDTAVYYCAREGILWFGDLPTFWGQGTLVTVSSASTKGPSVFPLAPCSRSTSESTAALGCLVKDYFPEPVTVSWNSGALTSGVHTFPAVLQSSGLYSLSSVVTVPSSNFGTQTYTCNVDHKPSNTKVDKTVERKCCVECPPCPAPPVAGPSVFLFPPKPKDTLMISRTPEVTCVVVDVSHEDPEVQFNWYVDGVEVHNAKTKPREEQFNSTFRVVSVLTVVHQDWLNGKEYKCKVSNKGLPAPIEKTISKTKGQPREPQVYTLPPSREEMTKNQVSLTCLVKGFYPSDIAVEWESNGQPENNYKTTPPMLDSDGSFFLYSKLTVDKSRWQQGNVFSCSVMHEALHNHYTQKSLSLSPGKGGGGGLPGCKWDLLIKQWVCDPLGSGSATGGSGSSASSGSGSATHLLPGCKWDLLIKQWVCDPL light: not shown |
